# Measurements published in article PMC7467691, “Meiotic chromosome synapsis depends on multivalent SYCE1-SIX6OS1 interactions that are disrupted in cases of human infertility” (Science Advances, 2020).
# T1: SIX6OS1N (human SIX6OS1 amino acids 1 to 67) (human, UniProt Q8N1H7 1-67)
# T1 construct: Protein SIX6OS1, human, amino acids 1 to 67; also called SIX6OS1 1–67; source: E. coli BL21(DE3), co-expressed with SYCE1 constructs, purified as complex (MBP removed by TEV); not shown: MBP, N-terminal, cleaved
# T1 sequence (looked up): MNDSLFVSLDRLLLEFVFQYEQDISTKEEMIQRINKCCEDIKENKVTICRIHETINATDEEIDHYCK
# Tests used:
# [1] = target: the molecule itself; experiment: SEC-MALS; 5 to 20 mg/ml in 20 mM tris (pH 8.0), 150 mM KCl, 2 mM DTT; Superdex 200 Increase 10/300 GL at 0.5 ml/min
# [2] = target: T1, SIX6OS1N (human SIX6OS1 amino acids 1 …); experiment: as above; settings: both partners purified
Binder,stoichiometry N [1],stoichiometry N [2],binding result [1]
"SYCE1POF (human SYCE1 amino acids 1 to 240, truncated product of the POF mutation c.613C>T, p.Gln241*) (domain or fragment, UniProt Q8N0S2 1-240, looked up, SYCE1, human, amino acids 1 to 240, relative to the canonical 351-amino acid isoform; product of the premature stop codon p.Gln241*; The purified material held about equal amounts of the full protein and a degradation product; source: also co-expressed with SIX6OS1N) MAGRSLTSKAEPTAGAVDRAEKAGGQDTSSQKIEDLMEMVQKLQKVGSLEPRVEVLINRINEVQQAKKKANKDLGEARTICEALQKELDSLHGEKVHLKEILSKKQETLRILRLHCQEKESEAHRKHTMLQECKERISALNLQIEEEKNKQRQLRLAFEEQLEDLMGQHKDLWDFHMPERLAKEICALDSSKEQLLKEEKLVKATLEDVKHQLCSLCGAEGPSTLDEGLFLRSQEAAATV",2,1,–
"SYCE1core (human SYCE1 amino acids 25 to 179) (domain or fragment, UniProt Q8N0S2 25-179, looked up, Synaptonemal complex central element protein 1 (SYCE1), human, amino acids 25 to 179, numbers relative to the canonical 351-amino acid isoform; also called SYCE1 structural core; SYCE1 25–179; source: co-expressed with SIX6OS1N for the complex) GQDTSSQKIEDLMEMVQKLQKVGSLEPRVEVLINRINEVQQAKKKANKDLGEARTICEALQKELDSLHGEKVHLKEILSKKQETLRILRLHCQEKESEAHRKHTMLQECKERISALNLQIEEEKNKQRQLRLAFEEQLEDLMGQHKDLWDFHMPE",–,1,binds
"full-length SYCE1 (human) (natural protein, UniProt Q8N0S2 1-351, looked up, SYCE1, human, full length; canonical 351-amino acid isoform; source: E. coli BL21(DE3), purified; co-expressed with SIX6OS1N for the complex) MAGRSLTSKAEPTAGAVDRAEKAGGQDTSSQKIEDLMEMVQKLQKVGSLEPRVEVLINRINEVQQAKKKANKDLGEARTICEALQKELDSLHGEKVHLKEILSKKQETLRILRLHCQEKESEAHRKHTMLQECKERISALNLQIEEEKNKQRQLRLAFEEQLEDLMGQHKDLWDFHMPERLAKEICALDSSKEQLLKEEKLVKATLEDVKHQLCSLCGAEGPSTLDEGLFLRSQEAAATVQLFQEEHRKAEELLAAAAQRHQQLQQKCQQQQQKRQRLKEELEKHGMQVPAQAQSTQEEEAGPGDVASPKPLKGERPGAAHQAGPDVLIGQEDTLHPDLSPRGFQEIKELF",–,1,–
